Data reported in the supplement of paper PMC9170038.

System: MS2 coat protein
Assay: apparent KD of MS2 coat protein; higher = weaker reporter binding
Conditions: Eterna round: R107
Summary of the method: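 Titration buffer: 100 mM Tris-HCl pH 7.5, 80 mM KCl, 4 mM MgCl2, without or with constant ligand. Designed RNA switches transcribed on-chip from Illumina sequencing clusters received SNAP-549-labelled MS2 coat protein in twofold steps from 0.7 or 1.5 nM to 3 µM. Apparent KD is the median per design of fits to normalised cluster binding curves.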

[1] = input ligand: theophylline 20 uM
[2] = input ligand: theophylline 2 mM
[3] = input ligand: tryptophan 2.4 mM

Row | Sequence | apparent KD of MS2 coat protein (input ligand: arginine 13.2 mM) | apparent KD of MS2 coat protein [1] | apparent KD of MS2 coat protein [2] | apparent KD of MS2 coat protein [3] | apparent KD of MS2 coat protein (input ligand: none)
1 | CGCCACAUGAGGAUCACCCAUGUCUUGGCGCGAGGACCGGUACGGCCGCCACUCGCGUUUCAGUGAGCGCAUGCGUCCUUGGUAU [Exclusion Tryp A GF10] | 16.8 nM | 27 nM | 20.3 nM |  | 
2 | CGCGGGCCACAUGAGGAUCACCCAUGUGAAGGAGCGGCGAAUAAGCCAGGUAGGUCGCGCAUGAAUAAAUCAUGUAGGUGGCGAA [XArg-A 10 V1&2] | 16.4 nM | 22.8 nM | 21.6 nM | 20.2 nM | 
3 | CGGUCGGUCGGCCGGUGAUUAUGGGAUGAAGGAGCGUGGGAAGCUACAGGUAGGUCGCAUCCGAAACACGAGGAUCACCCGUGUU [SSArg A #25Alt-Ms2 Mod] | 26.5 nM | 38.3 nM | 37.4 nM | 28.4 nM | 24.3 nM
4 | CGGUCGGUCGGUCGGUGAUUAUGGGAUGAAGGAGCGUGGGAAGCUACAGGUAGGUCGCAUCCGAAACAUGAGGAUCACCCAUGUU [#21 Same State - Arginine A] | 24.6 nM | 26.8 nM | 21.3 nM | 18.5 nM | 21 nM
5 | CGGUUUGUGAUGGAUACCAGCAGAGUGAAUGUUUAUCCUGACAUGAGGAUCACCCAUGUGUGCCCUUGGCAGCUGUUGUGGGCUG [8.Z] | 54.4 nM | 100 nM |  | 63.7 nM | 
6 | CGUAUUACGAAAGUAGUACGUAGUGUUCGACGAGGACCGGUACGGCCGCCACUCGGACAUGAGGAUCACCCAUGUAGCGAAAGCU [Tryptophan A 24] | 46.1 nM | 301 nM | 247 nM | 28.3 nM | 255 nM
7 | CGUGGUUGAGAUGGGCCUCUGAUAAGUCUGCGAGGACCGGUACGGCCGCCACUCGAGGACAUGAGGAUCACCCAUGUACUUCGCG [Vequar] | 41.1 nM | 139 nM | 50.5 nM | 19.2 nM | 30.8 nM
8 | CUACAUGUAGUUAAACCGGUCAACAAUAAUCGAGGACCGGUACGGCCGCCACUCGAUGUGUUAUACACAUGAGGAUCACCCAUGU [Tryptophan A 15] | 23.3 nM | 27.2 nM | 27.8 nM |  | 
9 | CUACAUUUGUAGAAACCGGUCAACAAUAAUCGAGGACCGGUACGGCCGCCACUCGAUGUAAAAUAAACAUGAGGAUCACCCAUGU [Tryptophan A 12] | 13.5 nM | 20.6 nM | 20 nM |  | 
10 | CUAUAAGUACCGGUCCUCAGAUCCUCAUGACGAGGACCGGUACGGCCGCCACUCGAAACAUGAGGAUCACCCAUGUAAUAAUAAU [Brourdmod06] | 15 nM | 38.5 nM | 24.5 nM |  | 
11 | CUAUAAGUACCGGUCCUCAGAUCCUCAUGACGAGGACCGGUACGGCCGCCACUCGAAACAUGAGGAUCACCCAUGUAAUAAUAUU [Brourdmod10] | 19 nM | 31.5 nM | 24.2 nM |  | 
12 | CUAUGCAGGUCGGCCGCCACUACACACAUGAGGAUCACCCAUGUAGUUACUGGGUGAAGUGGCAGUAGGACCGGGACCUGCACAU [Brourdmod15] | 190 nM | 578 nM | 659 nM | 229 nM | 480 nM
13 | CUAUGGAUAAGAAGGAGCGUCGAAAAUGGGUAAACAUGAGGAUCACCCAUGUAAAGGGAACGACAGGUAGGUCGCUUAUUUAUAG [AstromonsSSArgB#7] | 107 nM | 190 nM | 213 nM | 192 nM | 179 nM
14 | CUCAUCCACGCGGCCGCCACUAUAUUGUGGUGCGUAUGUGUCGUAAUACAUGAGGAUCACCCAUGUAGGACCGGGCGUGGAUGAG [#10 Exclusion Tryptophan B] | 10.9 nM | 14.3 nM | 11.6 nM |  | 
15 | CUCAUCCACGCGGCCGCCACUAUAUUGUGGUGUGAAUGUGACGUAUUACAAGAGGAUCACCCUUGUAGGACCGGGCGUGGAUGAG [Tryp B Ex Mod1] | 28.5 nM | 28.4 nM | 34.2 nM | 147 nM | 20.3 nM
16 | CUCCCGUGAGCGGCCGCCACUGGAGGCCUCGCGCGACAUGAGGAUCACCCAUGUUGGCCCGGCCUCAGGACCGGGUUCGCGUGAG [Same State - Tryptophan B Attempt #6 (HarryS)] | 7.47 nM | 17.4 nM | 12.7 nM | 8.4 nM | 9.18 nM
17 | CUCCGAGGCUAUACUAUCCGCCUCUGUGAUACCAGAAUACCUAUAUUCCCUUGGCAGCAUCACAUGAGGAUCACCCAUGUGCCAU [SSTheo A #13] | 14.5 nM | 16.8 nM |  | 13.9 nM | 
18 | CUCGAGGCCGGUGAUACCAGACACGAAACUAUACAUGAGGAUCACCCAUGUCAAACAACGGUCCCUUGGCAGCAUGGGUGUAUCC [Enzabemage] | 26.9 nM | 131 nM |  | 33.3 nM | 
19 | CUCGGUUGAUCCUAGCUGCCGAGAGGUGAUACCAGCAUCGAAAGAUGCCCUUGGCAGCACCAACAUGAGGAUCACCCAUGUAAUA [(MT)''-(M)'-(T')-(Theo)-(Ms2)_Design1/22_5] | 30.2 nM | 156 nM |  | 30.1 nM | 
20 | CUGGCAGGAUUCUCAGCUGUCAGGGCUGAUACCAGCCACGAAAGUGGCCCUUGGCAGCAGCAAACAUGAGGAUCACCCAUGUAAU [(T)''-(M)'-(T)'-(Theo)-(Ms2)_Design1] | 279 nM | 364 nM | 46.3 nM | 208 nM | 470 nM
21 | CUUGAGACAUGAGGAUCACCCAUGUCCGAAGGAGCGUGCGAAAGCACAGGUAGGUCGCGGACGUGAGGAUCUCCCAUGUGAGCGA [#25 Exclusion - Arginine A] | 14.3 nM | 28.2 nM | 25.7 nM | 17.8 nM | 35.9 nM
22 | CUUGUUUAUGGAAGGAGCGCGAUUACAUAACAUGAGGAUCACCCAUGUAAGAAAUUAUUCAUGCAGGUAGGUCGCCAUGGGUGGG [Same State Arginine B GF7] | 111 nM | 105 nM | 258 nM | 120 nM | 195 nM
23 | GAACAACAUGAGGAUCACCCAUGUCAGGAUACCAGUCGAAAGUCAGACCCUUGGCAGCCUAUCACUCAGCAAAUAGAUAGUACAA [theeternabot_sameState_MS2_Theo_A_12] | 14.7 nM | 20.4 nM |  | 16.2 nM | 
24 | GAAUAAGAAUCGGCCGCCACUCACAUGAGGAUCACCCAUGUACAUGAGGAACAUGAAAAUCACCCGAGGACCGGGAUAUAUGUUC [Excluion - Tryptophan B #1] | 31.1 nM | 67.4 nM | 71.3 nM |  | 
25 | GACAUGAGGAUCACCCAUGUACCGCGAGAAGGAGCGCGGAUAAACGCAGGUAGGUCGCUCGUGGGCUCACAUUCAAUUGUAAGCU [Digece] | 17.5 nM | 49.8 nM | 58.3 nM | 31.6 nM | 39.2 nM
26 | GACCUUAUCUGAAGGAGCGAGGUAAAUAGGGAUGAGCAUACAUGAGGAUCACCCAUGUGGCCUCAGGUAGGUCGCAGAUGAGAUU [Exclusion Arginine B GF27] | 77.5 nM | 155 nM | 149 nM | 105 nM | 113 nM
27 | GACCUUAUCUGAAGGAGCGAGGUAAAUAGGGUUGAGCAUACAUGAGGAUCACCCAUGUGGCCUCAGGUAGGUCGCAGAUAAGACA [Exclusion Arginine B GF29] | 149 nM | 308 nM | 63.4 nM | 137 nM | 352 nM
28 | GACUAUAUGAUAUGUCAGAAAUCCUCGAAACGAGGACCGGUACGGCCGCCACUCGAGUGAUAAACAUGAGGAUCACCCAUGUAAA [Tryp A Ex t2] | 21 nM | 28 nM | 27.7 nM |  | 
29 | GAGCUGAUGUAGAGCGAAUAUACGAGAGAUACCAGUACAGAAAUGUACCCUUGGCAGCUCAACUUUACAUGAGGAUCACCCAUGU [Ex Theophylline A 22] | 14.4 nM | 15.2 nM |  | 14.3 nM | 
30 | GAGCUGAUGUAGAGCUUAUAUAAGAGAGAUACCAGUACAGAAAUGUACCCUUGGCAGCUCAACUUUACAUGAGGAUCACCCAUGU [Ex Theophylline A 20] | 12.3 nM | 16 nM | 23.6 nM | 18.1 nM | 12.6 nM
